Test results as given in publication PMC7460833, “Exploring the Role of Phenylalanine Residues in Modulating the Flexibility and Topography of the Active Site in the Peroxygenase Variant PaDa-I” (International Journal of Molecular Sciences, 2020).

substrate: O=[N+]([O-])c1ccc2c(c1)OCO2; test: purified protein; assay type: biochemical, Cyclocybe aegerita; settings: H2O2 1 mM, potassium phosphate 50 mM pH 7.0, 20% v/v acetonitrile

Protein | Km [µM] | kcat [s⁻¹] | kcat/Km [M⁻¹ s⁻¹]
PaDa-I (AaeUPO variant) (Cyclocybe aegerita; F119A/F354L/I291V/L110F/V100A/V118I) (protein, laboratory-evolved secreted variant; plasmid pJRoC30-PaDa-I in Saccharomyces cerevisiae BJ5465, purified; only F311L given; recalled mature changes V57A/L67F/V75I/I248V/F311L (plus signal peptide F12Y/A14V/R15G/A21D); heme-thiolate, N-glycosylated) EPGLPPGPLENSSAKLVNDEAHPWKPLRPGDIRGPCPGLNTLASHGYLPRNGVATPAQIINAVQEGFNFDNQAAIAATYAAHLVDGNLITDLLSIGRKTRLTGPDPPPPASVGGLNEHGTFEGDASMTRGDAFFGNNHDFNETLFEQLVDYSNRFGGGKYNLTVAGELRFKRIQDSIATNPNFSFVDFRFFTAYGETTFPANLFVDGRRDDGQLDMDAARSFFQFSRMPDDFFRAPSPRSGTGVEVVVQAHPMQPGRNVGKINSYTVDPTSSDFSTPCLMYEKFVNITVKSLYPNPTVQLRKALNTNLDFLFQGVAAGCTQVFPYGRD | 1386 ± 176 | 356 ± 30 | 257000
PaDa-I (AaeUPO variant) (Cyclocybe aegerita; F119L/F354L/I291V/L110F/V100A/V118I) (protein, laboratory-evolved secreted variant; plasmid pJRoC30-PaDa-I in Saccharomyces cerevisiae BJ5465, purified; only F311L given; recalled mature changes V57A/L67F/V75I/I248V/F311L (plus signal peptide F12Y/A14V/R15G/A21D); heme-thiolate, N-glycosylated) EPGLPPGPLENSSAKLVNDEAHPWKPLRPGDIRGPCPGLNTLASHGYLPRNGVATPAQIINAVQEGFNFDNQAAILATYAAHLVDGNLITDLLSIGRKTRLTGPDPPPPASVGGLNEHGTFEGDASMTRGDAFFGNNHDFNETLFEQLVDYSNRFGGGKYNLTVAGELRFKRIQDSIATNPNFSFVDFRFFTAYGETTFPANLFVDGRRDDGQLDMDAARSFFQFSRMPDDFFRAPSPRSGTGVEVVVQAHPMQPGRNVGKINSYTVDPTSSDFSTPCLMYEKFVNITVKSLYPNPTVQLRKALNTNLDFLFQGVAAGCTQVFPYGRD | 890 ± 81 | 454 ± 22 | 510000
PaDa-I (AaeUPO variant) (Cyclocybe aegerita; F119L/F234A/F354L/I291V/L110F/V100A/V118I) (protein, laboratory-evolved secreted variant; plasmid pJRoC30-PaDa-I in Saccharomyces cerevisiae BJ5465, purified; only F311L given; recalled mature changes V57A/L67F/V75I/I248V/F311L (plus signal peptide F12Y/A14V/R15G/A21D); heme-thiolate, N-glycosylated) EPGLPPGPLENSSAKLVNDEAHPWKPLRPGDIRGPCPGLNTLASHGYLPRNGVATPAQIINAVQEGFNFDNQAAILATYAAHLVDGNLITDLLSIGRKTRLTGPDPPPPASVGGLNEHGTFEGDASMTRGDAFFGNNHDFNETLFEQLVDYSNRFGGGKYNLTVAGELRFKRIQDSIATNPNFSFVDFRFATAYGETTFPANLFVDGRRDDGQLDMDAARSFFQFSRMPDDFFRAPSPRSGTGVEVVVQAHPMQPGRNVGKINSYTVDPTSSDFSTPCLMYEKFVNITVKSLYPNPTVQLRKALNTNLDFLFQGVAAGCTQVFPYGRD | 1552 ± 155 | 332 ± 33 | 214000
PaDa-I (AaeUPO variant) (Cyclocybe aegerita; F234A/F354L/I291V/L110F/V100A/V118I) (protein, laboratory-evolved secreted variant; plasmid pJRoC30-PaDa-I in Saccharomyces cerevisiae BJ5465, purified; only F311L given; recalled mature changes V57A/L67F/V75I/I248V/F311L (plus signal peptide F12Y/A14V/R15G/A21D); heme-thiolate, N-glycosylated) EPGLPPGPLENSSAKLVNDEAHPWKPLRPGDIRGPCPGLNTLASHGYLPRNGVATPAQIINAVQEGFNFDNQAAIFATYAAHLVDGNLITDLLSIGRKTRLTGPDPPPPASVGGLNEHGTFEGDASMTRGDAFFGNNHDFNETLFEQLVDYSNRFGGGKYNLTVAGELRFKRIQDSIATNPNFSFVDFRFATAYGETTFPANLFVDGRRDDGQLDMDAARSFFQFSRMPDDFFRAPSPRSGTGVEVVVQAHPMQPGRNVGKINSYTVDPTSSDFSTPCLMYEKFVNITVKSLYPNPTVQLRKALNTNLDFLFQGVAAGCTQVFPYGRD | 525 ± 73 | 279 ± 18 | 531000
PaDa-I (AaeUPO variant) (Cyclocybe aegerita; F119A/F234A/F354L/I291V/L110F/V100A/V118I) (protein, laboratory-evolved secreted variant; plasmid pJRoC30-PaDa-I in Saccharomyces cerevisiae BJ5465, purified; only F311L given; recalled mature changes V57A/L67F/V75I/I248V/F311L (plus signal peptide F12Y/A14V/R15G/A21D); heme-thiolate, N-glycosylated) EPGLPPGPLENSSAKLVNDEAHPWKPLRPGDIRGPCPGLNTLASHGYLPRNGVATPAQIINAVQEGFNFDNQAAIAATYAAHLVDGNLITDLLSIGRKTRLTGPDPPPPASVGGLNEHGTFEGDASMTRGDAFFGNNHDFNETLFEQLVDYSNRFGGGKYNLTVAGELRFKRIQDSIATNPNFSFVDFRFATAYGETTFPANLFVDGRRDDGQLDMDAARSFFQFSRMPDDFFRAPSPRSGTGVEVVVQAHPMQPGRNVGKINSYTVDPTSSDFSTPCLMYEKFVNITVKSLYPNPTVQLRKALNTNLDFLFQGVAAGCTQVFPYGRD | 1389 ± 119 | 258 ± 15 | 186000
